Source: the DeepSol protein solubility set

Assay: soluble on expression in E. coli; label from the status in PepcDB or PDB records

Sequence	soluble on expression in E. coli
GIDIELQMLGERLLEGKIGSIVAIEPSTGEILCMVSAPTFDPRLMVGRQRGKNHLELARDSWKPLLNRSIMGQFPPGSTFKTTQALTFLQEGIITPQTAYSCYHGFVYAGLRVGCHSHGSPLPLVPAIATSCNGYFCWGLFHMIGAKKKYGSVQTAMNTWRDYMVSMGFGYPLGVDLPGEKRGMIPNAAYYDKNYRGSWNGLTIISISIGQGEVTATPLQIANLGATIANRGYYITPHVVKEVEDEPLDTLYTTKRYTKVSREHYQTVVEGMRSAVLGGTCRNANIPGIEVCGKTGTAQNRGKDHSAFMGFAPMNDPKIAVVVYVENGGWGATYGVPIGALIMEKYLKGELSPESEAKAAEIQNRRIDYGIHER	not soluble
MDFASSDGGGRTTTSAKIVVAGGFGVGKTTFVGAVSEINPLRTEAVMTSASAGIDDLTHTGDKTTTTVAMDFGRITLDQDLILYLFGTPGQDRFWFMWDDLVRGAIGAVVLVDTRRLADCFPAVDYFENSGLPFVIALNGFDGHQPYNPEEVREALQIGPDAPIITTDARHRADAKSALITLVEHALMARLRLEHHHHHH	not soluble
MGSDKIHHHHHHMAKLCHKPLHILFFRHSLLGRGGDKMVVCQANALARRGHQVTIRTATLATPFSLDDRIEINLTGSSSVAATLMDLFKGRFSFDLLIVDIIPLAVLAGIRFGRTKVIYYVQDWDVSYYRSLAFRSLIRLLYFVERSFLRIPVIVVSEHLLGKIGRTGIGATYVVENGIDLTLFNSKGRLHPAFAPGHIPTFLLFIRNDWRKGSDLALKVVKKLADRYPHAFGVVAVGNRPAIRPSQIDWIDKGFMDERQIADLMKQCDLFLYPSRHEGFGLMALEAFACGCLVVTTTAVGFAHDIENSLVAEVDDEQGLYSRLCCLLEKQIEIAPLVKKAEEFASEHPLELCMDRFCSVIEELNQ	not soluble
MGSDKIHHHHHHMSFVSYAQNFEDVMLWRALRHIKNGYYIDVGAFSADEDSVTRAFYDQGWSGINIEPNPKYHEELVARRDRDINLRVAVSDRAEDRALYVIDDTGLTTLEPDIAEMHREKGFSKIDVVVPALTLEEIWTTHVPQDQDVHFLKIDVEGHELPVIKGLDWDRHRPWIVVVESTLPATQQLSETGIVEALAKADYEAVYWDGLNRYYVAKERAELTKYFDDPPNVFDGFRRSSEVEFEQRALQAEAELYLEREHVVRISKENWDHVHHALEVKFSALQEAMAAEAQAARRDVTQELVELRMQLSKQGMTSSFWTRFFFRPTGKPKKALRRLLFHTNGKPRGIFRNRVLKSNGQPRPAFLRWMASAEYQQLRRAVKVAASDESQHVLESGASTLSQNEGVFVGVLQSARTEKSH	not soluble
MGSDKIHHHHHHMKKKIIHTLVYNYEIPVSLEEHLICLKPRSNSFQELSNFDLQIFPSPYSIFPLLSDNGDDIFKLLFTGSTNSLKIKTESDIETNIHPDLYQLKNDYDLSLPLKIESNDSLIGFIKGWFPNGQHDPAAIRIAQEALAGINNNVLDFLYHLIELIKDRVKYTPRHIGPAWTSGRTLSERVGSCRDLAILLMETCRCVGIPSRFVSGYQFMDQAPDKYELHAWTEVYIPGFGWRGFDPSGCGLINHNYVALASSSKSELVAPLRGSFVGPSNLKSELEWKIDIT	not soluble
MRDNKELTESKLHLDEFSAYLMSIDKSDSTIKTYIEHIQAFAKWFEETNCIDFDPAVITEIDIRDMRSYLQGTRHLKETTINLRLASLKCYFSFLESEKYIKHNPARNIRKIKLQSPNIAKSLDEQTYRALRRHVYRGGNKAHIAMFEIFTRCGVRNFELINIRLTDFDISDRKGTLKIVGKLNKVRYIPLHKDVRDAINNWMEIRKNIKTEYDNLFISERKTPYTRSGIWKIFKKYCEQIGITDVTIHSFRHYFCRTLLKNGVDISVVAKLAGHSSGFVTAQVYTIPRQEELEAAIETLV	not soluble
HMAMASKEMFEDTVEERVINEEYKIWKKNTPFLYDLVMTHALQWPSLTVQWLPEVTKPEGKDYALHWLVLGTHTSDEQNHLVVARVHIPNDDAQFDASHCDSDKGEFGGFGSVTGKIECEIKINHEGEVNRARYMPQNPHIIATKTPSSDVLVFDYTKHPAKPDPSGECNPDLRLRGHQKEGYGLSWNSNLSGHLLSASDDHTVCLWDINAGPKEGKIVDAKAIFTGHSAVVEDVAWHLLHESLFGSVADDQKLMIWDTRSNTTSKPSHLVDAHTAEVNCLSFNPYSEFILATGSADKTVALWDLRNLKLKLHTFESHKDEIFQVHWSPHNETILASSGTDRRLNVWDLSKIGEEQSAEDAEDGPPELLFIHGGHTAKISDFSWNPNEPWVICSVSEDNIMQIWQMAENIYNDE	soluble
MIGGLFVYNHKGEVLISRIYRDDVTRNAVDAFRVNVIHARQQVRSPVTNMARTSFFHVKRGNVWICAVTRQNVNAAMVFEFLKRFADTMQSYFGKLNEENVKNNFVLIYELLDEILDFGYPQNTDPGVLKTFITQQGVRTATKEEQSQITSQVTGQIGWRREGIKYRRNELFLDVIEYVNLLMNQQGQVLSAHVAGKVAMKSYLSGMPECKFGINDKITIEGKSKPGSDDPNKASRAAVAIDDCQFHQCVKLTKFETEHAISFIPPDGEYELMRYRTTKDIQLPFRVIPLVREVSRNKMEVKVVVKSNFKPSLLAQKLEVRIPTPPNTSGVQLICMKGKAKYKAGENAIVWKIKRMAGMKESQISAEIDLLSTGNVEKKKWNRPPVSMNFEVPFAPSGLKVRYLKVFEPKLNYSDHDVIKWVRYIGRSGLYETRC	not soluble
MVKAEFGLYSATGGRVLVWLEQIHVQPLELLSTDERIRRQSIGVTILWNNILVMIQCDGNILPQKHQGFYRFHCEFQQRSLHTAEHLMSFMDEGS	not soluble
MVSDEDELNLLVIVVDANPIWWGKQALKESQFTLSKCIDAVMVLGNSHLFMNRSNKLAVIASHIQESRFLYPGKNGRLGDFFGDPGNPPEFNPSGSKDGKYELLTSANEVIVEEIKDLMTKSDIKGQHTETLLAGSLAKALCYIHRMNKEVKDNQEMKSRILVIKAAEDSALQYMNFMNVIFAAQKQNILIDACVLDSDSGLLQQACDITGGLYLKVPQMPSLLQYLLWVFLPDQDQRSQLILPPPVHVDYRAACFCHRNLIEIGYVCSVCLSIFCNFSPICTTCETAFKISLPPVLKAKKKKLKVSA	not soluble
MGHHHHHHSHMALLVRVLRNQTSISQWVPVCSRLIPVSPTQGQGDRALSRTSQWPQMSQSQACGGSEQIPGIDIQLNRKYHTTRKLSTTKDSPQPVEEKVGAFTKIIEAMGFTGPLKYSKWKIKIAALRMYTSCVEKTDFEEFLLRCQMPDTFNSWFLITLLHVWMCLVRMKQEGRSGKYMCRIIVHFMWEDVQQRGRVMGVNPYILKKNMILMTNHFYAAILGYDEGILSDDHGLAAALWRTFFNRKCEDPRHLELLVEYVRKQIQYLDSMNGEDLLLTGEVSWRPLVEKNPQSILKPHSPTYNDEGL	not soluble
MATSAEVSQRVLAYLVEQLGVDVSFLRHNDRDRRATRLVAEWPPRLNIPDPDPLRLIYFADADPVFALCEHAKEPLVFRPEPATEDYQRLIEEARGVPVTSAAAVPLVSGEITTGLLGFIKFGDRKWHEAELNALMTIATLFAQVQARVAAEARLRYLADHDDLEHHHHHH	not soluble
MGSDKIHHHHHHLCLIKPGLKVLEIGCGTGRVLKPLLESGASVVGVDISHEMLALAHNKLASFCDSGALRLLNHNFVYSSIPERFDRVFVTFYTFNYLLSYENALSFLKNIYSSMNDGAVLLMDMFFPSIYHNPAIEGKWQQRYLNLGAKQIRLSDRRTMRGPMEKREQVFEEDGGRQEITTLRRFYDKNETARLLREAGFSSVKFTDVYDSTLFHQLELLEATDRGFLVMGRREAGGGEG	not soluble
MRDNLVEQIISDVMNKQTDISPEAKTAANFAGCGITEFVGTALGHTIGLVIANVDNQLHEVMNIDKKYRSIGILGARTGAGPQIFAADEAIKATNSEIISIELARDTEGGGGHGCLIIFGASDVSDVRRAVEVALSEIERTMGDVYGSSAGHLEFQYTARASYALNKALGAPIGKSFGMTCASPAAIGLVIADAAAKSAVIDPVGYASPSQGTSFSNEVIFTFSGDSGAVRQAVIAAREVGLQLLSTLDPVEIKSTTTPYI	soluble
SASTGSQASDIDEIFGFFNDGEPPTKKPRKLLPSLKTKKPRELVLVIGTGISAAVAPQVPALKSWKGLIQALLDAAIDFDLLEDEESKKFQKCLHEDKNLVHVAHDLIQKLSPRTSNVRSTFFKDCLYEVFDDLESKMEDSGKQLLQSVLHLMENGALVLTTNFDNLLELYAADQGKQLESLDLTDEKKVLEWAQEKRKLSVLHIHGVYTNPSGIVLHPAGYQNVLRNTEVMREIQKLYENKSFLFLGCGWTVDDTTFQALFLEAVKHKSDLEHFMLVRRGDVDEFKKLRENMLDKGIKVISYGDDYADLPEYFKRLTCEISTRGTSAGMVREGQLNGSSAAHSEIRGCST	soluble
MGSDKIHHHHHHMCRWLAYTGNPIPLETVLFRAKHSLIDQSLHSRMGATTTNGDGFGIGWYGQPDEVPFIYRCVSPAWNDRNLREAARAIRSPLFVAHVRSATDTPVQETNCHPFRRGRWLFAHNGLIRRYHTLRRDLMMRIDPGLFASIEGSTDSEVMFHLALTFGLEHDPLAALERMAGAIEDAGAHHRVDAPLNMTVCATDGEQVVAVRYSSEHDSRSLFHSTSFRHLHELYPHDPRIRAIGDDAFLVLSEPLVDLHDAWEKIPESTAIIARRGDIRQVPFQPRRST	not soluble
MTDHSNTRVVVGMSGGVDSSVVALLLKQQGYDVVGVFMKNWDDTDENGVCTATEDYKDVAKVADKIGIPYYSINFEKEYWDRVFTYFLDEYKKGRTPNPDVICNKEIKFKAFLDYAMDLGADYIATGHYARLQHDEDGTMHLLRGVDSNKDQTYFLSQLDSKTLQKVMFPLGEMVKPDVRKLALNAGLATAKKKDSVGICFIGEKNFKEFLGHYLPATPGKMMTFDGQVKGEHAGLMYYTIGQRRGLGIGGDGEDNEPWFVVGKDLKKNILYVGKGYHNPHLYATHLKASDLHFVTDEDLGNDFHVTAKFRYRQKDSGVTVHFNDDHTEVTVTFDDPVRAITPGQAVVFYNGEECLGSGMIDAAYNDERVLQYVLEHHHHHH	not soluble
MAHHHHHHMVVLKGGGTTYAVGNGRQMPWEEVPEGFKRRLAEQEEITPCVELRAIAQRCIEVEGFWAPNCVEATEQFHSCQAQHLAGCLPNWTHHNNNNINN	not soluble
MSLEQASVTNDFSENKQGCIQHPWQGKKVGYIGDSITDPNCYGDNIKKYWDFLKEWLGITPFVYGISGRQWDDVPRQAEKLKKEHGGEVDAILVFMGTNDYNSSVPIGEWFTEQEEQVLSAHGEMKKMVTRKKRTPVMTQDTYRGRINIGITQLKKLFPDKQIVLLTPLHRSLANFGDKNVQPDESYQNGCGEYIDAYVQAIKEAGNIWGIPVIDFNAVTGMNPMVEEQLIYFYDAGYDRLHPDTKGQERMARTLMYQLLALPVAFEGHHHHHH	soluble
MSLGKATGFLEFGRELPKKIDPAERIKNNKEFVLNQEFGKKINQQASRCMDCGVPFCHNGCPIGNIIPEFNDAVYRDSWEEAWNILSSTNNFPEFTGRVCPAPCETACVLGINQDPITICNIEKTIVERAYQEGYAKPKTPRSRTGKTVAIIGSGPAGLAAAEQLNAAGHSVTVFERDEKVGGLLRFGIPDFKLGMDVIDRKINLMEQAGVKFVVNAHIGVDINAQQLRQEFDAVLLTGGSTVPRDLSIPGRDLKGVYFAMQFLAQNNRRANGMDLKGEEIHAKGKHVVVIGGGDTGSDCVGTSNRHGAASITQVEIMPIPPQKRPVNMPWPQYPMILRTSTSHEEGCERHWNILTKEFIGNEQGEVTGLRIADIVWKDAAPGERPSFDEVVGSERVIPCDMAFLAMGFLHPEPHGVLAQLGIKLDERGNVATQDFATNQKGVFAAGDMRTGQSLVVRCINEGRECARAVDTFLMGNTHLEAKADSLMLSAEGHHHHHH	soluble
